According to patent US20070203061, “Adiponectin expression-inducing agents and uses thereof” (TOUDAI TLO, LTD, published 2007):

Target: FLAG-KLF9 (UniProt O35739 SEQ:1-244)
Assay: EMSA; purified FLAG-KLF9 with 32-bp fragment, similar to adipocyte nuclear extract
Conditions: tags: FLAG; label: 32P
Experimental: […] were prepared from 293T cells, 3T3L1 adipocytes, or white adipose tissue according to a reported method (Almoguera, C. et al., J. Biol. Chem. 277, 43866-43872 (2002)). Double-stranded oligonucleotides used for the electrophoretic mobility shift assay were prepared by annealing both strands. Labeled probes (3,000 to 10,000 cpm) and the nuclear extracts were mixed in a reaction solution (20 μL: 10 mM Tris-HCl (pH7.6), 50 mM KCl, 0.05 mM EDTA, 2.5 mM MgCl₂, 8.5% glycerol, 1 mM dithiothreitol, 0.5 μg/mL of poly(dI-dC), 0.1% Triton X, and 1 mg/mL of skim milk), and incubated for 30 minutes on ice. The DNA-protein complexes were fractionated on a 4.6% polyacrylamide gel at 140 V for 1 hour at 4° C. The Gel was dried and exposed using a BAS2000 filter with BAStation software (Fuji Photo Film).

FLAG-KLF9, sequence (O35739 other isoform, or with tags, fused parts or gaps): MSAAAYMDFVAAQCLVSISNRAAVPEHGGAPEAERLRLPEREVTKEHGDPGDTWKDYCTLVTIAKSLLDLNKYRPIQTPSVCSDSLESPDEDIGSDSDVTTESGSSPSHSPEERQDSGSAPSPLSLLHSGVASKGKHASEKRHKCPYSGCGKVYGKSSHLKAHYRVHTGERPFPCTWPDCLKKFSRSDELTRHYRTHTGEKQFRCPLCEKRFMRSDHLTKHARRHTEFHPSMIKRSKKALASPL

B1: adiponectin promoter -188/-157 32-bp element (dsDNA)
DNA 1: GAAGCCCAAGCTGGGTTGTACCAGGTTCCCTA
DNA 2: TAGGGAACCTGGTACAACCCAGCTTGGGCTTC
**Q.** Does B1 bind?
**A.** binds
